# From the nanobody polyreactivity screen of Harvey et al. (2022)
# Assay: yeast display, Sf9 membrane polyspecificity reagent, FACS + sequencing; frameworks hold sequencing errors
# In short: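 Sorting gates, low and high (top ~1%), were placed on anti-HA fluorescence to track expression and on streptavidin fluorescence to track reagent binding. A clone's polyreactivity label is taken from the gate it came out of. The reagent was 10% biotinylated, detergent-solubilized Sf9 membrane, applied for 1 hour at 4 °C to galactose-induced yeast display cells.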
row,Sequence,polyreactivity (PSR sort gate)
1,QVQLVESGGGLVQAGGSLRLSCAASGRTFWPNVMGWYRQAPGKERELVAALTWGDASTYYADSVKGRFTISRDNAKYTVYLQMNSLKPEDTAVYYCAASDYRRTYDYWGQGTQVTVSS,low polyreactivity
2,QVQLVESGGGLVQAGGSLRLSCAASGRIFGYYGMGWYRQAPGKERELVAAITDDGDSTYYADSVKGRFTISRDNAKNTVYLQMNSLKPEDTAVYYCNALGYYVNKMDYWGQGTQVTVSS,low polyreactivity
3,QVQLVETGGGLVQAGGSLRLSCAASGITFFAYAMGWYRQAPGKERELVAAISTGGSTNYADSVKGRFTISRDNAKNTVYLQMNSLKPEDTAVYYCGSDRSDLAEEGYAGYDYWGQVTQVTVSS,low polyreactivity
4,QVQLVESGGGLVQAGCSLRLSCAASGGIFSAYVMGWYRQAPGKERELVAAITRRGGATYYADSVKGRFTISRDNAKNTVYLQMNSLKPEDTAVYYCAADDQYYTEYYYWGQGTQVTVSS,high polyreactivity
5,QVQLVESGGGLVQAGGSLRLSCAASGRIFINVLGWSRQAPGKETELVATITNSGGSTYYADSVKGRFTISRDNAKNTVYLQMNSLKPEDTAVYYCAKRSYHRYGVYRYDYWGQGTQLTVSS,high polyreactivity
6,QVQLVESGGGLVQAGGSLRISCAASGFAFSYYAMGWYRQAPGKEREFVASIDWSGGSTYYADSVKGRFTISRDNAKNTVYLQMNSLKPEDTAVYYCAAELDYFPGYDYWGQGTQVTVSS,low polyreactivity
7,QVQLVESGGGLVQAGGSLRLSCAASGSIFESYAMGWYRQAPGKEWELVASISGGGSTYYADSVKGRFTISRDNAKNTVYLQMNSLKPEDTAVYYCATVYVRYRQSRLIRYGYWVQGTQVTVSS,high polyreactivity
8,QVQLVESGGGLVQAGGSLRLSCAASGSTFRTNTMGWYRQAPGKERELVADISWSGGSTYYADSVKGRFTISRDNAKNTVYLQMNSLKPEDTAVYYCAKDGAYWTYFSWYDYWGQGTQVTVSS,low polyreactivity
9,QVQLVESGGVLVQAGGSLRLSCASSLTISYRYAMGWYRTAPGKERELVAAITSGGGTTYYADSVKGRFTISRDNAKNTVYLQMNSMKPEDTAVYYCAKPRARQAFEYWGQGTQVTVSS,high polyreactivity
10,QVQLVESVGGLVQAGGSLRLSCAASGFTFRANAMGWYRQAPGKERELVAAINWSGTSTYYADSVKGRFTISRDNAKNTVYLQMNSLKPEDTAVYYCAVLFYGAKYDYWGQGTQVTVSS,low polyreactivity
11,QVQLVESGGGLVQAGGSLRLSCAASGLNFRAYAMGWYRQAPGKERELVAAITWNGGSTNYADSVKGRFTISRDNAKNTVYLQMNSLKPEDTAVYYCNKYRISGLSKFYYWGQGTQVTVSS,high polyreactivity
12,QVQLVESGGGLVQAGGSLRLSCAASGRILYNYAMGWYRQAPGKECELVAAISSGGSTNYADSVKGRFTISRDNAKNTVYFQMNSLKPEDTAVYYCAAYRGHSWRGLYRWSDYDFWGQGTQVTVSS,low polyreactivity
13,QVHLVESGGCLVQAGGSLRLSCAASGRIFGVYVMGWYRQARGTEREFVAAITWSGGRTYYADSVKGRFTISRDNAKNTVYFQMNSLKPQDTAVYYCAARRSYEYVYWGKGTQVTVSS,high polyreactivity
14,QVQLVESGGGLVQAGGSLLLSCAASGFIFGLNAMGWYRQAPGKERELVAAIRSASSTNYADSVKGRFTISRDNAKNTVYLQMNSLKPEDTAVYYCAAEYVTYQQGFWGYDYWGQGTQVTVSS,low polyreactivity
15,QVQLVESGGGLVQAGGSLRLSCSASGGIFWVYAMGWYRQAPGKERELVAAISNSDTSTSYADSVKGRFTISRDNAKNTVYLQMNSLKPEDTAVYYCNADSPSLSGDYWGQGTQVTVSS,low polyreactivity
16,QVQLVESGGGLVQAGGSLRLSCAASGRTFDSNAMGLYRQAPGKERELVAAISYGGGTTHYADSVKGRFTISRDNAKNTVYLQMNSLKPEDTAVYYCAADPEHQWESVTIGEYDYWGQGTQVTVSS,low polyreactivity
17,QVQLVESGAGLVQAGGSLRLSCAPSGRTFWGKVMGWYRQAPGKERELVAAITGRVGSTRYADSVKGRFTISRDNAKNTVFLQMNSLKPEDTAVYYCNADDYELYDYWGQGTQVTVSS,low polyreactivity
18,QVQLVESGGGLVQAGGSLRLSCAASGSTFQNNAMGWSRQAPGKERELVAGITGGGGNTNYADSVKGRFTISRDNTKNTVYLQMNSRTPEDTAVYYCAADDPWLGVDFGYWGQGTQVTLSS,low polyreactivity
19,QFQLVESGGGLVQAGGSLRLSCAASGSTFDPYAMGWDTQAPGKEREFLADIDSSVGSTFYADSVKGRFTISRDNPKNTVYLQMNSLKPEDTAVYYCAAASRVAKGRWRLYDYWGQGTQVTVSS,high polyreactivity
20,QVQLVESGGGLVQAGGSLRLSCAASGRIFNANAKGWYRQAPWKERELVAAITYSGGSTYYADSVKGRFTISRDNAKNTVYLQKNSLKPEDTAVYYCNVDYAGPYDYWGQGTQVTVSS,low polyreactivity
21,QVQLVESGGGLVQAGGSLRLRCAASGFTFQNYVMGWYRQAPGKESELVAAINSGGRTYYADSVKGRFTISRDYANNTVYLQMNSLKPEDTAVYFCKDRRGHYWGQGTQVTVSS,high polyreactivity
22,QVQLVESGGGLVQAGGSLRLSCAASGFIFAYYAMGWYRQAPGKERELVAAISSRGGTYYADSVKGPFTISRDNAKNTVYLQMNSLKPEDTAVYYCAAASYTWVSLGYEYWGQGTQVTVSS,high polyreactivity

row,Sequence,polyreactivity (PSR sort gate)
1,QVQLVESGGGLVQAGGSLRLSCAASGRTFEGYAMGWYRQAPGKERELVAAISGSSGSTYYADSVKGRFTISRDNAKNTVYLQMNSLKPEDTAVYYCNADYDWPGGSDYWGQGTQVTVSS,low polyreactivity
2,QVQLVESGGGLVQAGGSLRLSCAASGTTFVHYAMGWYRQAPGKERELVAAISSSGDSTYYADSVKGRFTISRDKAKNTVYLQMNSLKPEDTAVYYCAVRSRTPRAYYYWGQGTQVTVSS,low polyreactivity
3,QVQLVESGGGLVQAGGSLRLSCAASGSIFYYNAMGWYRQAPGKERELVAAISRSGGSTYYADSVKGRFTISRDNAKNTVYLQMNSLKPEDTAVYYCAARPNFTPYEYGYWGQGTQVTVSS,low polyreactivity
4,QVQLVESGGGLVQAGGSLRLSCAASGFIFLGYGMGWYRQAPGKEREFVAGISWSGGSTYYADSVKGRFTISRDNAKNTVYLQMNSLKPEDTAVYYCNAVVFWGGGDYYWGQGTQVTVSS,low polyreactivity
5,QVQLVESGGGLVQAGGSLRLSCAASGRIFGGYAMGWYRQAPGKERELVAAISARGGSTYYADSVKGRFTISRDNAKNTVYLQMNSLKPEDTAVYYCAAAEASSRGYYDYDYWGQGTQVTVSS,low polyreactivity
6,QVQLVESGGGLVQAGGSLRLSCAASGNIFYTYAMGWYRQAPGNERELVAGISSDASTTYADSVKGRFTISRDNAKNTVYLPMKSLNPEDTAVYYCPADITGIVWYVYYYWGQGTQVTVSS,low polyreactivity
7,QVQLVESGGGLVQAGGSLRLSCAASGRIFYTNAMGWYRKAPGKERELVAGITCSGDSTYYADSVKGRFTISRDNAKNTVYLQMNSLKPEDTPVYYCAARWRYVLMDYWGQGNQVTVSS,low polyreactivity
8,QVQLVESGGGLVQAGGSLRLSCAASGISFGVYSLGWYRQAPGKERELVAAISSSGTSTYYADSVKGRFTISRDNAKNTVYLQMNSLKPEDTAVYYCAADYKRNQEVDYWGQGTQVTVSS,high polyreactivity
9,QVQLVESGGGLVQAGGSLRLSCAASGRIFGYYAMGSYRQAPGKERELVAAITRGGSTNYADSVKGRFTISRDNAKNTVYLQMNSLKPEDTAVYYCNARRYRPRSASYDYWGQGTQVTVSS,high polyreactivity
10,QVQLVESGGGLVQAGGSLRITCAASGSIFTGNAMGWYRQAPGKERELVAAISSSGGSTYYADSVKGRFTLSRDNAKNTVYLQMNSMKPEDTAVYYCAAYNNFLQYDYWGQGTQVTVSS,low polyreactivity
11,QVQLVESGGGLVQAGGSLRLSCAASGSIFRQYAMGWYRQAPGKERELVAAIRSGGSTYYADSVKGRFTISRDNAKNTVYLQMNSLKPEDTAVYYCATRYHWSGYYYWGQGTQVTVSS,high polyreactivity
12,QVQLVESGGGLVQAGCSLRLSCAASGNSFPSYAMGWYRQAPGKARELVAAITTGGRTYYADSVKGRFTISRDNAKNTVYLQMNSLNPEDTAVYYCAADWGVRYPWYRYYYWGQATQVTVSS,high polyreactivity
13,QVQLVESGGGLVQAGGSLRLSCAASGRTFYYYAMGWYRQAPGKERELVAAITSTGGSTYYADSVKGRFTISRDNAKNTVYLQMNSLKPDDTAVYYCAADQVWGYDSWGQGPQVTVSS,low polyreactivity
14,PVQLVESGGGFVQAGGSLRLSCAASGFTFYVNAMGWYRQAPGKERELVAAISGSGGSTYYADSVKGRFTISRDNAKNTVYLQMNSLKPEDTAGYYCAADAYNPPYWDDPYDYWGQGTQVTVSS,high polyreactivity
15,QVQLVESGGGLVQAGGSLRLSCAASGRISIIYAMGWYRQAPGKERELVARISGSGGSTNYADSVKGRFTISRDNAKNTVYLQMKSLKPEDTAVYYCAAVPWRIHKYYYWGQCTQVTVSS,high polyreactivity
16,QVQLVESGGGLVQAGGSLRLSCAASGSIFVSNVMGWYRQSPGKERELVAAISSSGGRTNYADSVKGRFTISRDNAKNTVYLQMNSLKPEDTAVYYCAKAGRYANLPYGYWGQGTQVTVSS,high polyreactivity
17,QVQLVDSGGGLVQAGGSLRLSCAASGFILSRYTMGWYRQAPGKERELVATISSGGRTYYADSVKGRFTISRDNAKNTVYLQMNSLKPEDTAVYYCAAAYTYWRISGNRYLYDYWGQGTQVTVSS,high polyreactivity
18,QVHLVDSGGGLVQAGGSLRLSCAASGSIISVYFMEWYRQAPGKERELVASITSGASTNYADSVKGRFTISRDNAKNTVYLQINSLKPEDTAVYYCCARDWYDGFYYWGQGTQVTVSS,low polyreactivity
19,QVQLVESGGGLVQAGCSLRLICAASGYIFVIYAMGWNRQAPGKERELVAAISSSGAGTYYADSVKGRFTISRDNAKNTVYLQMNSLKPEDTAVYYCAASESAVFDGYDYWGQGTQVTVSS,high polyreactivity
20,QVQHVESGGGLVQAGGSLRLRCAASGFTFGSYAMGWYRQAPGKERELVASISSAGRTYYADSVKGRITISRDNAKNSVYLQMNSLKPEDTAVYYCNTDARVTIYDYDYWGQGTQVTVSS,low polyreactivity
21,QVQLVESGGGLVQAGGSLRLRCAASGSTCFLYAMGWYRQAPGKEMELVASISDGSSTNYADSVKGRFTISRDNAKNTVYLQMNSLKPEDTAVYYCDAARWYAHRVDYWGQGTQVTVSS,low polyreactivity
